Target: T1, NY-ESO-1 peptide on HLA-B*40:01 (human)
T1 peptide: EFTVSGNIL
Assay: multimer staining
From the text: FIGS. 4A-4I are graphical representations of positive staining of Jurkat 76/CD8 cells transduced with B*40:01/NY-ESO-1₁₂₅₋₁₃₃ TCR genes with a cognate multimer. Jurkat 76/CD8 cells transduced with the B*40:01/NY-ESO-1₁₂₅₋₁₃₃ TCR (FIGS. 4B, 4E, and 4H) were stained with the B*40:01/NY-ESO-1₁₂₅₋₁₃₃ multimer (FIG. 4B). […], B*40:01/unexchanged multimer (FIGS. 4G, 4H, and 4I), and A*02:01/NY-ESO-1₁₅₇₋₁₆₅ TCR (clone 1G4LY; FIGS. 4C, 4F, and 4I) as well as untransduced Jurkat 76/CD8 cells (FIGS. 4A, 4D, and 4G) were employed as controls The percentage of multimer⁺ CD8⁺ cells is shown.
T cells (1×10⁵) were incubated for 30 minutes at 37° C. in the presence of 50 nM dasatinib (LC laboratories). The cells were then washed and incubated with 5-10 μg/ml of multimer for 30 minutes at room temperature, and R-phycoerythrin-conjugated AffiniPure Fab fragment goat anti-mouse IgG1 (Jackson ImmunoResearch Laboratories) was added for 15 minutes at 4° C. Next, the cells were washed three times and costained with an anti-CD8 mAb for 15 minutes at 4° C. Dead cells were finally discriminated using the LIVE/DEAD Fixable Dead Cell Stain kit.

binding result: recognises
B1: B*40:01/NY-ESO-1125-133 TCR (TCR, V domains shown)
Valpha: SQQGEEDPQALSIQEGENATMNCSYKTSINNLQWYRQNSGRGLVHLILIRSNEREKHSGRLRVTLDTSKKSSSLLITASRAADTASYFCATDRGTDKLIFGTGTRLQVFP
Vbeta: NAGVTQTPKFRVLKTGQSMTLLCAQDMNHEYMYWYRQDPGMGLRLIHYSVGEGTTAKGEVPDGYNVSRLKKQNFLLGLESAAPSQTSVYFCASSPGVGTEAFFGQGTRLTVV

Reference: patent US20220152104A1 (published 2022)
